For the experiment, the target named is human Slo1 (human), Q12791. The experiment can be described thus: cell-based or functional assay.
Chain of human Slo1 (human), Q12791 (Q12791 whole entry): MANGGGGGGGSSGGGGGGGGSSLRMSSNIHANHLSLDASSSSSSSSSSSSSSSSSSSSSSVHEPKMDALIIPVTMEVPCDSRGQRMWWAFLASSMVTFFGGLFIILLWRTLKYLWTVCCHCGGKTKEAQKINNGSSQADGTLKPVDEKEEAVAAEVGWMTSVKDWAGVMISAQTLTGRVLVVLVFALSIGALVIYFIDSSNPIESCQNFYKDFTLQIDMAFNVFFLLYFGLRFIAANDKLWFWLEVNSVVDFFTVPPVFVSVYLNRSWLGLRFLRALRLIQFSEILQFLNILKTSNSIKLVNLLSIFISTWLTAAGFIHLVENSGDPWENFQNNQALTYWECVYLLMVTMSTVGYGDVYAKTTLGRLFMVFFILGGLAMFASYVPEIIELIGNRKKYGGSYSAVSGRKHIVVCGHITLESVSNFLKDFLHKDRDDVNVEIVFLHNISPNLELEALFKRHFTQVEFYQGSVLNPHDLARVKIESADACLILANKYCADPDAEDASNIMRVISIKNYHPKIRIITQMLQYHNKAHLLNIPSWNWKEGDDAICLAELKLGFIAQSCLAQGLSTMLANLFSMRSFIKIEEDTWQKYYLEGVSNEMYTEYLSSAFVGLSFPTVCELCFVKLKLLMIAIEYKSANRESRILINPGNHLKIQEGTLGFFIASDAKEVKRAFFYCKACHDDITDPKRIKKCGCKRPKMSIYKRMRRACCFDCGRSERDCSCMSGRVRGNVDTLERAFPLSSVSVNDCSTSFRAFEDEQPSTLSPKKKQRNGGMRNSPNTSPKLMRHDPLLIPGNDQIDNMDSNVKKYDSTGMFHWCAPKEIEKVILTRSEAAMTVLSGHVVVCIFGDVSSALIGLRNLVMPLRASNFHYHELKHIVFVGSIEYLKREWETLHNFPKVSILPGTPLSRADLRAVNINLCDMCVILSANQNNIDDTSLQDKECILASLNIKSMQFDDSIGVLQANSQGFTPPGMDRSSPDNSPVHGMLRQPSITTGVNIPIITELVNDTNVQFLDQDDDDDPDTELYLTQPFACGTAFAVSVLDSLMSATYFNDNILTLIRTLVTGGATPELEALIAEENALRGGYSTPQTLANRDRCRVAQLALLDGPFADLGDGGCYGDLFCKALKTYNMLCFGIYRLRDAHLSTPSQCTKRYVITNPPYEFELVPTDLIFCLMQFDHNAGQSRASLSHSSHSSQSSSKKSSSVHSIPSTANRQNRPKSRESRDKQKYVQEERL

B1: human BK beta 3, Q86W47 1-210 (protein)
chain: MAKLRVAYEYTEAEDKSIRLGLFLIISGVVSLFIFGFCWLSPALQDLQATEANCTVLSVQQIGEVFECTFTCGADCRGTSQYPCVQVYVNNSESNSRALLHSDEHQLLTNPKCSYIPPCKRENQKNLESVMNWQQYWKDEIGSQPFTCYFNQHQRPDDVLLHRTHDEIVLLHCFLWPLVTFVVGVLIVVLTICAKSLAVKAEAMKKRKFS
Turning to B1, the leftward shift in the Slo-1 activation curve (V1/2act) in the presence of 50 µM free Ca2+ was found to be 15 mV.
